Consider two molecules from US20140154243A1 (Amgen, published 2014).

One test deals with T1, mouse HGF (mouse, UniProt Q08048 33-728).
T1 construct: also called recombinant mouse HGF; mHGF
Description: FACS bead assay: antibody incubated with the avidin fusion of mouse HGF, captured on biotin-coated beads; FITC anti-avidin (x) against PE goat anti-human F(ab')2 (y). On the procedure: After incubation, the fusion proteins in each sample were separately captured using biotin-coated beads (Spherotech Inc., Libertyville, Ill., Cat # TP-60-5). The resulting bead-protein complexes were labeled by adding FITC labeled anti-avidin antibody (Vector Lab, Burlingame, Calif., Cat. # SP-2040). The presence of antibodies to HGF was determined by adding phycoerythrin (PE) labeled goat anti-human F(ab′)2 antibody (Southern Biotech Associates, Inc, Birmingham, Ala., Cat #2043-09).
Those samples were then subjected to Fluorescence Activated Cell Sorter (FACS) analysis. Bead complexes labeled by FITC (which indicated the presence of avidin) and/or PE (which indicated the presence of antibody to HGF) were detected on a Becton Dickinson Bioscience FACScan (BD, Franklin Lakes, N.J.).

In test [1] the target is human HGF-avidin fusion protein with the point mutation hHGFR647Q (chicken; human, UniProt P02701 25-152; P14210 32-728, limits assumed). Description: avidin fusion protein captured on biotin-coated beads, PE anti-human F(ab')2, FACS. On the procedure:
(§1) These constructs were expressed and subjected to binding analysis as described in Examples 8C and 8D. […] The resulting bead-protein complexes were labeled by adding FITC labeled anti-avidin antibody (Vector Lab, Burlingame, Calif., Cat. # SP-2040). The presence of antibodies to HGF was determined by adding phycoerythrin (PE) labeled goat anti-human F(ab′)2 antibody (Southern Biotech Associates, Inc, Birmingham, Ala., Cat #2043-09). Those samples were then subjected to Fluorescence Activated Cell Sorter (FACS) analysis. Bead complexes labeled by FITC (which indicated the presence of avidin) and/or PE (which indicated the presence of antibody to HGF) were detected on a Becton Dickinson Bioscience FACScan (BD, Franklin Lakes, N.J.). In some cases, after expression normalization using FITC, single-color FACS analysis was performed following antibody binding by the PE label. This method increased the sensitivity of the assay and aided the measurement of binding with constructs that were not expressed at very high levels.

The target of test [2] is human HGF-avidin fusion protein with the point mutation hHGFC561R (chicken; human, UniProt P02701 25-152; P14210 32-728, limits assumed). The description is as above. Here is the method:
as §1

In test [3] the target is human HGF-avidin fusion protein with the point mutation hHGFD592N (chicken; human, UniProt P02701 25-152; P14210 32-728, limits assumed). The test is described as above. Here is the method: as §1
Test [4] concerns the target human HGF-avidin fusion protein with the point mutation hHGFN601S (chicken; human, UniProt P02701 25-152; P14210 32-728, limits assumed). The description is as above. On the procedure:
as §1

Test [5] has as its target human HGF-avidin fusion protein with the point mutation hHGFG555E (chicken; human, UniProt P02701 25-152; P14210 32-728, limits assumed). Described as above. On the procedure:
as §1

The target of test [6] is T2, human HGF-avidin fusion protein with a two amino acid insertion (mouse amino acids 540N and 541K) (chicken; human, UniProt P02701 25-152; P14210 32-728, limits assumed).
T2 construct: also called hHGF DK insertion
The description is as above. On the procedure:
as §1

Test [7] addresses T3, human hepatocyte growth factor (HGF) (human, UniProt P14210 32-728).
T3 construct: Recombinant protein; The mature protein is a heterodimer of the alpha and beta subunits; also called human HGF; full length HGF
Nature of the test: BIAcore 3000, kinetic method: antibody captured on immobilized Protein G, human HGF (0-100 nM) injected. From the text:
The running buffer for those analyses was PBS with 0.005% P20 surfactant (BIAcore, Inc. Piscataway, N.J.). Recombinant Protein G (Pierce, Rockford, Ill.) was immobilized to a research grade CM5 sensor chip (Biacore, Inc. Piscataway, N.J.) via primary amine groups using the Amine Coupling Kit (Biacore, Inc. Piscataway, N.J.), according to the manufacturer's instructions.
In six separate samples, about 200 resonance units (RU) of each of the six antibodies to HGF was separately attached to immobilized Protein G following the manufacturer's instructions. Samples comprising various concentrations (0-100 nM) of human HGF were injected over the bound antibody surface at a flow rate of 50 μl/min for 3 minutes. Antibody binding kinetic parameters including kₐ (association rate constant), kd (dissociation rate constant), and KD (dissociation equilibrium constant) were determined using the BIA evaluation 3.1 computer program (BIAcore, Inc. Piscataway, N.J.). Lower dissociation equilibrium constants indicate greater affinity of the antibody for HGF.
On the technique in general: Surface plasmon resonance follows binding to a sensor surface in real time, without labels.

T3 sequence (P14210 32-728 limits assumed): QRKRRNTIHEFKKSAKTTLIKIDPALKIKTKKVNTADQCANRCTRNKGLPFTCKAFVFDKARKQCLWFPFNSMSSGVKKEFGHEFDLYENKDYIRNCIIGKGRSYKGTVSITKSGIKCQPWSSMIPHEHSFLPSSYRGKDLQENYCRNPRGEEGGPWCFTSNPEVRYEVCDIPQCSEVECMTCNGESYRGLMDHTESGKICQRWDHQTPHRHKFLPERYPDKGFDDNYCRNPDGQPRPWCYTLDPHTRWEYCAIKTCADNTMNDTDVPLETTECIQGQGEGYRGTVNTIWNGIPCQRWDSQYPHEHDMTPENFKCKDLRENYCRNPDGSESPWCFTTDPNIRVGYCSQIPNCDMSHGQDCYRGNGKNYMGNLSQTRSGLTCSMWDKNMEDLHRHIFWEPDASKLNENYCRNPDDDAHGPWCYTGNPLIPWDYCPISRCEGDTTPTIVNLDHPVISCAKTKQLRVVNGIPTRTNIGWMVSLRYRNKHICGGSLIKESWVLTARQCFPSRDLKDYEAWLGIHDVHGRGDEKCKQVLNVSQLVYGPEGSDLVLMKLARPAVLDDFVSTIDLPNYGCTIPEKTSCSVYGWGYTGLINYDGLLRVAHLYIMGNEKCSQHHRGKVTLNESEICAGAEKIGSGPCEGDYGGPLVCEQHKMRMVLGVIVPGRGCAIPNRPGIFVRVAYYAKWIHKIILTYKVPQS
T1 sequence (Q08048 33-728 limits assumed): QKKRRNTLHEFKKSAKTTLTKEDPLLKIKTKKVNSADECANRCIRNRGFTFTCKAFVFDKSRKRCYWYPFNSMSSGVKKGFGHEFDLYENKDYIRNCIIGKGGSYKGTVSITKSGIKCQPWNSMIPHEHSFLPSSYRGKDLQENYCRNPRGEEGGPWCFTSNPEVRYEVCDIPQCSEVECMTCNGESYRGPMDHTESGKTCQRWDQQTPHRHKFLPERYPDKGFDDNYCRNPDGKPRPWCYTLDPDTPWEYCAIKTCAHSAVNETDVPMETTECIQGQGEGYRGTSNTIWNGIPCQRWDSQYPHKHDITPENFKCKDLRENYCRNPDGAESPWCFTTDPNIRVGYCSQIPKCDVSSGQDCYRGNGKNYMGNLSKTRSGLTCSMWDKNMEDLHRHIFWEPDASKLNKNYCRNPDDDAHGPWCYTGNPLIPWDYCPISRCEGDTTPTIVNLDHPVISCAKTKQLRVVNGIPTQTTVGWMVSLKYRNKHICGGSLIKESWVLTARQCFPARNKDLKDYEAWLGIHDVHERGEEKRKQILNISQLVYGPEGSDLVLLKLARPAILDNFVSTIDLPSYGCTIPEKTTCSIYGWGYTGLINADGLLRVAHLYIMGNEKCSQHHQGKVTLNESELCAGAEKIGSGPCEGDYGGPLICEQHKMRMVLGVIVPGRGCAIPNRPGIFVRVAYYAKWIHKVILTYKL
Chain of human HGF-avidin fusion protein with the point mutation hHGFC561R (P02701 other isoform, or with tags, fused parts or gaps limits assumed): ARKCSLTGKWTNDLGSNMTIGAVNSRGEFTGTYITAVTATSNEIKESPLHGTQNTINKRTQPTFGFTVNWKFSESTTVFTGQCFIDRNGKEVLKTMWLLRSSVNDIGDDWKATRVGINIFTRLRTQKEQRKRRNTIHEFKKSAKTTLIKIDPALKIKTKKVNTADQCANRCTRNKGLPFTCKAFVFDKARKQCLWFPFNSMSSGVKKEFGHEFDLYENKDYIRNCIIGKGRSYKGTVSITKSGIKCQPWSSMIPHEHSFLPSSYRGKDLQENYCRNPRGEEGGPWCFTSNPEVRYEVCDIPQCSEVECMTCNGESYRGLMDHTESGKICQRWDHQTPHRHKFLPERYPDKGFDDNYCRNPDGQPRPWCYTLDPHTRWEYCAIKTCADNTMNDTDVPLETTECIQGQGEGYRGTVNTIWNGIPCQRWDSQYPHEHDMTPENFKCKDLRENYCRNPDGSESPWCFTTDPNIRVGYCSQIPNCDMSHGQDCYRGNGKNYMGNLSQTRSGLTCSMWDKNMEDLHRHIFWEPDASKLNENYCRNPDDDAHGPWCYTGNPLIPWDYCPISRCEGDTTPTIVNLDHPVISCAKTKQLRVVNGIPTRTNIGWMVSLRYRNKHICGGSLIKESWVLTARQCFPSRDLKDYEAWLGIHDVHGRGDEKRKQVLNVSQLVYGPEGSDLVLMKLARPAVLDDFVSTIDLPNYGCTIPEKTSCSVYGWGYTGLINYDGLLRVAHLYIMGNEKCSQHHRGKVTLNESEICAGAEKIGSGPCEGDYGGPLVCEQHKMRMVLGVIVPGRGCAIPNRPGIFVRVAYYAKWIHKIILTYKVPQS
Chain of human HGF-avidin fusion protein with the point mutation hHGFD592N (P02701 other isoform, or with tags, fused parts or gaps limits assumed): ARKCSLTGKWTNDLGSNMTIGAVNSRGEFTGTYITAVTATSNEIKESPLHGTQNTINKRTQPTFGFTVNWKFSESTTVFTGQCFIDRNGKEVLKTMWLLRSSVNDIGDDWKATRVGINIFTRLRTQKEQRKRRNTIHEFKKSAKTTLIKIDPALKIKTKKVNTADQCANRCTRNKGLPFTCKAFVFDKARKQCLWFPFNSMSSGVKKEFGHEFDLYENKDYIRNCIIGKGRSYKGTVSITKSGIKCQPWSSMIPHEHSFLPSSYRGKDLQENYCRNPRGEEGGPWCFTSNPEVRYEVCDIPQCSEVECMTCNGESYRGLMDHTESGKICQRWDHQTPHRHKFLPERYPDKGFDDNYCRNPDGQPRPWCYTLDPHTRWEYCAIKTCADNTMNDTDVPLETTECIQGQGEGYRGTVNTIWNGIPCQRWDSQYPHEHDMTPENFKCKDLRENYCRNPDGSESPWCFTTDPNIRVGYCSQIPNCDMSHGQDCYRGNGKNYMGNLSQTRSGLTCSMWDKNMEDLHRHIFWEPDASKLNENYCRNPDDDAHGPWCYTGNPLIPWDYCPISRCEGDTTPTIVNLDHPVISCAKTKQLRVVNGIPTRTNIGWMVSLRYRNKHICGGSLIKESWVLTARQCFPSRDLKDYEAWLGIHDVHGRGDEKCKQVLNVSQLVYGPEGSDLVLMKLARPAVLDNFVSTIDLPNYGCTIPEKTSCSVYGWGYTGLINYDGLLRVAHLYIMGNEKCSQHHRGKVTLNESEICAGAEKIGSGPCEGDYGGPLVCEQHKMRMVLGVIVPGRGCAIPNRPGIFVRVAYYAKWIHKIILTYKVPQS
Chain of human HGF-avidin fusion protein with the point mutation hHGFR647Q (P02701 other isoform, or with tags, fused parts or gaps limits assumed): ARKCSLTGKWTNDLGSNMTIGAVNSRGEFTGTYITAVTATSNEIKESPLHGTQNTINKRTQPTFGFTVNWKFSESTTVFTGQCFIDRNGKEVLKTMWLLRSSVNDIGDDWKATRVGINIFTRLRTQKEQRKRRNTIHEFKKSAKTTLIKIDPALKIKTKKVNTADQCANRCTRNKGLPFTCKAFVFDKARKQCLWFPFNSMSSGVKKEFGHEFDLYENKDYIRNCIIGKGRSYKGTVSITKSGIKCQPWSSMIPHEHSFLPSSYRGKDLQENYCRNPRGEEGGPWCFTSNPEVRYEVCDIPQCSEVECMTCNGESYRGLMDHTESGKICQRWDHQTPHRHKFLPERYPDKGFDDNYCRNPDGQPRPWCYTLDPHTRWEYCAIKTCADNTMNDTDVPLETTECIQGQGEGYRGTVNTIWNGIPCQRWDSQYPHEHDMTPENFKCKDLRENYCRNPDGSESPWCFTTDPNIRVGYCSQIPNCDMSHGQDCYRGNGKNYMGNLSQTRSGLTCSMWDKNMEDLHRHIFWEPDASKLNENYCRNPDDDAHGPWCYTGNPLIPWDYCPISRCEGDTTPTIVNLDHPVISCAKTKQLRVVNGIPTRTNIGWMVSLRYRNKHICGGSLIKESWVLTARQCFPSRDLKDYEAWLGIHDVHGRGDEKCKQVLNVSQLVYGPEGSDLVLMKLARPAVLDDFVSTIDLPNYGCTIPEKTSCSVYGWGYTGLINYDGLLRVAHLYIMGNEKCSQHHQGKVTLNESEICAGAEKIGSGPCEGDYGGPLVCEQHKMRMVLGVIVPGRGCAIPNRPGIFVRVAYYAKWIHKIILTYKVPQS
T2 sequence (P02701 other isoform, or with tags, fused parts or gaps limits assumed): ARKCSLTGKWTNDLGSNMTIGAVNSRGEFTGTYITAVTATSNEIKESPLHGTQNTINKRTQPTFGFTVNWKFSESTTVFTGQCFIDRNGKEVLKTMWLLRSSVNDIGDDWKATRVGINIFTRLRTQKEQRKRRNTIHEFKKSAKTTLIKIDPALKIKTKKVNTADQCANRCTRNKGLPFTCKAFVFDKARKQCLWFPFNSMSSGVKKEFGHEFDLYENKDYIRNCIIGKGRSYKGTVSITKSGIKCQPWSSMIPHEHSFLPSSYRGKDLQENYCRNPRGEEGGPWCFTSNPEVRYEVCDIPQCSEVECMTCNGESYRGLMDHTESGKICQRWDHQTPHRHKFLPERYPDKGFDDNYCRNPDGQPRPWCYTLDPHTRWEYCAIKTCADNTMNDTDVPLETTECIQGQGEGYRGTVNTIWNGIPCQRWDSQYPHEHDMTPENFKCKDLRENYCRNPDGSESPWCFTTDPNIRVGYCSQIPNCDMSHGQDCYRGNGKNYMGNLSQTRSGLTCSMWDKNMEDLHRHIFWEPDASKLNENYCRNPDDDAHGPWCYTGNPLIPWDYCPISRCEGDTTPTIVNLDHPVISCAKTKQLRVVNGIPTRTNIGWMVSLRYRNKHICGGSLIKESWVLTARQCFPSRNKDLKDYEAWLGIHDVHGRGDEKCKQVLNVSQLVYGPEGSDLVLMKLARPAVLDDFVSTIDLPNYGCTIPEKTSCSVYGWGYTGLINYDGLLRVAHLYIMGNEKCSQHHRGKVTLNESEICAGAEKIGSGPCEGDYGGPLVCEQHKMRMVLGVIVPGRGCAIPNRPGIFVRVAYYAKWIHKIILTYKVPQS

B1: antibody 2.4.4 (antibody, human IgG2, kappa, V domains shown)
VH: QVQLKESGPGLVKPSQTLSLTCTVSGGSISSGVYYWSWIRQHPGKGLEWIGYFYYSGNTYHNPSLKSRVTISVDTSKNQFSLKLSSVTAADTAVYYCARDRSGYDHPDAFDIWGQGTMVTVSS
VL: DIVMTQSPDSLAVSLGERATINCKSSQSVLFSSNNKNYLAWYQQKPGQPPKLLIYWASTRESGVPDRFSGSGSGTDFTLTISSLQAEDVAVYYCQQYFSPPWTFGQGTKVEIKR
notes: also called FITC-labeled antibody 2.4.4
As to B1, the binding result with mouse HGF is on record as “no binding”; in test [1], “binds”; in test [2], “no binding”; in test [3] it was “binds”; in test [4], “binds”; in test [5], “binds”. In test [6], the binding result is “no binding”. The molecule also came in with a dissociation constant Kd in test [7] of approximately 0.099 nM. The koff in test [7] worked out at 2.7e-05 s⁻¹. The kon in test [7] is 270000 M⁻¹ s⁻¹.

B2: antibody 2.12.1 (antibody, human IgG2, kappa, V domains shown)
VH: QVQLQESGPGLVKPSETLSLTCTVSGGSISIYYWSWIRQPPGKGLEWIGYVYYSGSTNYNPSLKSRVTISVDTSKNQFSLKLNSVTAADTAVYYCARGGYDFWSGYFDYWGQGTLVTVSS
VL: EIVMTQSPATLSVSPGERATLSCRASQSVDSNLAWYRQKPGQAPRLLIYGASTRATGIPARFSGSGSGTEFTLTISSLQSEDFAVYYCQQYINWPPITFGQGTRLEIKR
With B2, the binding result with mouse HGF is reported as “no binding”; in test [1] it was “binds”; in test [2], “no binding”; in test [3] it was “binds”; in test [4] it was “binds”; in test [5], “no binding”. In addition, in test [6], the binding result is “no binding”. In test [7], this molecule displayed a Kd of approximately 0.22 nM. In test [7], this molecule showed a koff of 2.8e-05 s⁻¹. Further, the kon in test [7] was found to be 130000 M⁻¹ s⁻¹.

Usually Kd stands for a measure of binding affinity in units of concentration. A low value points to higher affinity. What is called koff is the rate constant with which the complex falls apart. A lower koff goes with slow dissociation. By kon is commonly meant the rate constant with which the complex forms. A higher kon goes with faster complex formation.
